Experimental data reported in patent US20180236053A1 (published 2018).

B1: 16B5 scFv (tested as anti-CD38 CARs, versions V1, V2 and V3) (scFv)
scFv: QAYLQQSGAELVRSGASVKMSCKASGYTFTSYNLHWVKQTPGQGLEWIGYIYPGNGGTNYNQKFKGKATLTADTSSSTAYMQISSLTSEDSAVYFCARGGIYYYGSSLDYWGQGTTLTVSSGGGGSGGGGSGGGGSNIVLTQSPASLAVSLGQRATISCRASESVDNYGTTFMYWYQQKPGQPPKLLIYLASNLESGVPARFSGSGSGTDFTLTIDPVEADDAATYYCQQNKEDPWTFGGGTKLEIK
B2: 13F11 scFv (tested as anti-CD38 CARs, versions V1, V2 and V3) (scFv)
scFv: QIQLVQSGPELKKPGETVKISCKASGYTFKKYGMNWVKQAPGKGLKWMGWINTNTGEPTYAEEFKGRFAFSLETSASTAYLQINNLKNEDTATYFCARWYYGSTPSSYTMDYWGQGTSVTVSSGGGGSGGGGSGGGGSETTVTQSPASLSVATGEKVTIRCITSTDIDDDMNWYQQKPGEPPKVLISEGNTLRPGVPSRFSSSGYGTDFVFTIENTLSEDVADYYCLQSNNMPYTFGGGTKLEIK
B3: GMB005 scFv (tested as anti-CD38 tool CARs, versions V1, V2 and V3) (scFv)
scFv: EVQLLESGGGLVQPGGSLRLSCAVSGFTFNSFAMSWVRQAPGKGLEWVSAISGSGGGTYYADSVKGRFTISRDNSKNTLYLQMNSLRAEDTAVYFCAKDKILWFGEPVFDYWGQGTLVTVSSASGGGGSGGGGSGGGGSEIVLTQSPATLSLSPGERATLSCRASQSVSSYLAWYQQKPGQAPRLLIYDASNRATGIPARFSGSGSGTDFTLTISSLEPEDFAVYYCQQRSNWPPTFGQGTKVEIK
B4: 10F7 scFv (tested as anti-CD38 CARs, versions V1, V2 and V3) (scFv)
scFv: QAYLQQSGAELVRSGASVKMSCKASGYTFTSYNMHWVKQTPGQGLEWIGYIYPGNGGTNYNQKFKDKATLTADTSSSTAYMQISSLTSEDSAVYFCARGGQLGRPWFAYWGQGTLVTVSAGGGGSGGGGSGGGGSNIVLTQSPASLAASPGQRATISCRASESVDSYGNTFMYWYQQKPGQPPKLLIYLASNLESGVPVRFSGSGSRTDFTLTIDPVEADDAATYYCQQNNEDPWTFGGGTKVEIK
B5: 29B4 scFv (tested as anti-CD38 CARs, versions V1, V2 and V3) (scFv)
scFv: EVQLVESGGGLVKPGGSLKLSCAASGFTFSDYFMYWVRQTPEKRLEWVAIISDGGIYTYYPDSVKGRFTISRDNAKNNLYLQMSSLKSEDTAMYYCARDGRDDYDGWYFDVWGAGTTVTVSSGGGGSGGGGSGGGGSDIVMTQSHKFMSTSVGDRVNITCKASQDVNTAVAWYQQKPGQSPKLLIYWASTRHAGVPDRFTGSGSGTDYALTISSVQAEDLALYYCQQHYSTPRTFGGGTKLEIK
B6: 27B6 scFv (tested as anti-CD38 CARs, versions V1, V2 and V3) (scFv)
scFv: QVQLKQSGPGLVQPSQSLSITCTVSGFSLTSYNIDWVRQSPGKGLEWLGVIWSGGSTDYNAAFISRLKISKDDSKSQVFFKMNSLQSDDTAIYYCARHSPLVSTPDWYFDVWGAGTTVTVSSGGGGSGGGGSGGGGSQIVLTQSPAIMSASPGEKVTMTCSTSSSVSYMHWYQQKSGTSPKRWIYDTSKLASGVPARFSGSGSGTSYSLTINNMEAEDAATYSCQQWSSYPPTFGGGTKLEIK
B7: 25A10 scFv (tested as anti-CD38 CARs, versions V1, V2 and V3) (scFv)
scFv: EVQLQQSGAELVRPGASVKLSCTASGFNIKDSLIHWVKQRPEQGLEWIGWIDPEDDKTKYAPKFQDKATLTADTSSNTAYLQLSTLTSEDTAIYYCVSRYINYYFAYWGQGTTLTVSSGGGGSGGGGSGGGGSDIVMTQSPSSLTVTAGEKVTMSCKSSQSLLHSGNQRNYLTWYQQKPGQPPKLLIYWASTRESGVPDRFTGSGSGTDFTLTISSVQAEDLAVYYCQNDYDYPYTFGGGTKLEIK

Target: CD38 antigen on the surface of cells (U266 CD38+, MOLP8, Daudi, T-ALL cell lines, activated T cells) (human, UniProt P28907 1-300)

Row | Kd [nM] | Binder
1 | 3.2 | B1
2 | 0.8 | B2
3 | 119 | B3
4 | 30 | B4
5 | 0.52 | B5
6 | 2.2 | B6
7 | 0.25 | B7
